Data as given in patent publication US20180009892A1 (EUREKA THERAPEUTICS, published 2018).

Columns and labels:
mouse ROR1-ECD = biological target: T1, mouse ROR1-ECD (mouse, UniProt Q9Z139 30-406); assay: phage antibody protein ELISA
T1 construct: extracellular domain; also called mROR1
Method: (§1) Binding specificities of the 45 phage antibodies were determined by protein ELISA against human ROR1-ECD, human ROR2-ECD and mouse ROR1-ECD (FIG. 12).

human ROR2-ECD = biological target: T2, human ROR2-ECD (human, UniProt Q01974 34-403); assay: phage antibody protein ELISA
T2 construct: extracellular domain; also called hROR2
Method: as §1

[1] = biological target: T3, human ROR1 extracellular domain (ECD) protein (human, UniProt Q01973 30-406); assay: competitive phage ELISA: soluble ROR1 against ROR1-coated plate
T3 construct: also called hROR1-ECD; human ROR1-ECD
Method: Purified phage antibodies were first diluted serially in PBST buffer, and tested for binding to a ROR1-coated plate. The dilution that gave 50-80% saturating signal was used in the solution binding assay in which phage were first incubated with increasing concentration of ROR1 for one to two hours, and then transferred to a ROR1-coated plate for 10-15 minutes to capture the unbound phage.

[2] = biological target: T4, ROR1 extracellular domain Fc-fusion, dimer (human, UniProt Q01973 30-406); assay: SPR, immobilised ROR1 dimer, antibody injected, 1:1 model
T4 construct: also called ROR1 dimer; hROR1 dimeric ECD-Fc fusion protein; not shown: Fc part
Method: (§2) The binding affinities of ROR1 extracellular domain dimer and monomer for anti-ROR1 antibodies were determined by surface plasmon resonance (SPR). ROR1 extracellular domain Fc-fusion, “dimer,” and ROR1 extracellular domain Fc fusion:Fc heterodimer, “monomer,” are the dimer and monomeric forms of ROR1 used for affinity analysis, respectively. Briefly, ROR1 dimer and monomer were directly immobilized to a CM4 chip using an amine coupling kit and 100 mM ethylenediamine in 100 mM Sodium Borate buffer, pH 8.0 as the blocking reagent. Approximately 100-150 RU of ROR1 dimer and monomer were immobilized on separate flow cells and an un-derivatized flow cell was used as a reference control. […] Dissociation was followed for 180 seconds. The association constant, dissociation constant, and affinity of each anti-ROR1 antibody was calculated using the Biacore T200 Evaluation Software 1:1 binding model.
(§3) Sensorgrams were normalized to 100 RU using the “binding stability point” at the end of the association phase but before the dissociation phase.

[3] = biological target: T5, ROR1 extracellular domain Fc fusion:Fc heterodimer, monomer (human); assay: SPR, immobilised ROR1 monomer, antibody injected, 1:1 model
T5 construct: Heterodimer of one ROR1 ECD-Fc chain and one Fc chain; also called ROR1 monomer; hROR1 monomeric ECD-Fc fusion protein; not shown: Fc part; Fc alone
Method: as §2, §3

[4] = biological target: T4, ROR1 extracellular domain Fc-fusion, …; assay: SPR, immobilised ROR1 dimer, antibody injected, 1:1 model; apparent affinity
Method: as §2, §3

[5] = biological target: T4, ROR1 extracellular domain Fc-fusion, …; assay: SPR, immobilised ROR1 dimer, antibody injected, 1:1 model; second entry of 601-14
Method: as §2, §3

[6] = biological target: T5, ROR1 extracellular domain Fc fusion:Fc …; assay: SPR, immobilised ROR1 monomer, antibody injected, 1:1 model; second entry of 601-14
Method: as §2, §3

[7] = biological target: T4, ROR1 extracellular domain Fc-fusion, …; assay: SPR, immobilised ROR1 dimer, antibody injected, 1:1 model; apparent affinity; second entry of 601-14
Method: as §2, §3

T2 sequence (Q01974 34-403): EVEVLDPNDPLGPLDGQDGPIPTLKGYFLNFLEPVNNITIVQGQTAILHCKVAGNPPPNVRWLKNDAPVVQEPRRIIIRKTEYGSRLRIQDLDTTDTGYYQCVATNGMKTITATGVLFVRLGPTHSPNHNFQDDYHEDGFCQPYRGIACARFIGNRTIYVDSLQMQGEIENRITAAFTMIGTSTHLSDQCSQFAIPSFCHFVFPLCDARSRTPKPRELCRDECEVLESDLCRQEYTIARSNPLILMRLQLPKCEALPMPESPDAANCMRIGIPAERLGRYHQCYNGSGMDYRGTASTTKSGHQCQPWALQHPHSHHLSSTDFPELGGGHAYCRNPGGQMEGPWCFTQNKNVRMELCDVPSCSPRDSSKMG
T3 sequence (Q01973 30-406 limits assumed): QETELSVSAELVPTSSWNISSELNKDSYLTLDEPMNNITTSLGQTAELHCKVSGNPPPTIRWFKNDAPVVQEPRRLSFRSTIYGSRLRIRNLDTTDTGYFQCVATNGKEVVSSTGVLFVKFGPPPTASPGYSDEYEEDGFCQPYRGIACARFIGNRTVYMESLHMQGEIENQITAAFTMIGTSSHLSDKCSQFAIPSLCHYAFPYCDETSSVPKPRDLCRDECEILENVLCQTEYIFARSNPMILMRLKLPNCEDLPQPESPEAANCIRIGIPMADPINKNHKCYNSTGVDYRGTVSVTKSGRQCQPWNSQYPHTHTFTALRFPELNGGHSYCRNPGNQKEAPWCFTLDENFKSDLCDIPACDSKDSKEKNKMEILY
T5 sequence (Q01973 30-406, one chain of several): as the sequence (Q01973 30-406 limits assumed) above
T4 sequence (Q01973 30-406): as the sequence (Q01973 30-406 limits assumed) above
T1 sequence (Q9Z139 30-406): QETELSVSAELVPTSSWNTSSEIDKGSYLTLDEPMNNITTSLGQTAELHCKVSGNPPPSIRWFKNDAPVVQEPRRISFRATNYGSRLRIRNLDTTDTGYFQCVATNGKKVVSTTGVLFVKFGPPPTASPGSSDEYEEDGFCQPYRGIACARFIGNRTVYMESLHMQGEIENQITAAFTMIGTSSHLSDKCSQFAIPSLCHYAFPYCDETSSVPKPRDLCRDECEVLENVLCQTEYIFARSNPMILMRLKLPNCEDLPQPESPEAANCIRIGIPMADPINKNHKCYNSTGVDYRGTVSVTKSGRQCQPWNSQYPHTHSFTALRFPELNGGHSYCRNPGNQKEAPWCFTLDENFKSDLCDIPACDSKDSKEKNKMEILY

Row | Binder | binding result (mouse ROR1-ECD) | binding result (human ROR2-ECD) | IC50 [1] [nM] | koff [2] [s⁻¹] | kon [2] [M⁻¹ s⁻¹] | Kd [3] [nM] | koff [3] [s⁻¹] | kon [3] [M⁻¹ s⁻¹] | Kd [4] [nM] | further results
1 | P601-1 (scFv, V domains shown) VH: EVQLVESGGGLVKPGGSLRLSCAASGFTFSDYYMSWIRQAPGKGLEWVSYISDSTNTIYYADSVKGRFTVSRDNPKNSLYLQMISLRAEDTAVYYCARAVGAGEGFDHWGQGTLVTVSS VL: not shown | binds | no binding | 0.11 |  |  |  |  |  |  | 
2 | P601-14 (scFv, V domains shown) VH: QVQLVQSGAEVKKPGESLKISCKDSGYSFTNYWLGWVRQMPGKGLEWMGIIYPGDSDTRYSPSFRGQVTISADKSISTAYLQWSSLKASDTAMYYCARLNLATHTAFDIWGQGTTVTVSS VL: QSVLTQPASVSGSPGQSITISCTGTSSDVGGYNYVSWYQQHPGKAPKLMIYDVSNRPSGVSNRFSGSKSGNTASLTISGLQAEDEADYYCSSYTSSSTLWVFGGGTKLTVLG | binds | no binding | 3.22 |  |  |  |  |  |  | 
3 | P601-28 (scFv, V domains shown) VH: EVQLVQSGGDLVQPGGSLRLSCAASGFTFSSYSMNWVRQAPGKGLEWVSSISSSSSYIYYADSVKGRFTISRDNAKNSLYLQMNSLRAEDTAVYYCARGLGGWTHDAFDIWGQGTTVTVSS VL: QSALTQPASVSGSPGQSITISCTGTSSDVGGYNYVSWYQQHPGKAPKLMIFDVSNRPSGVSNRFSGSKSGNTASLTISGLQAEDEADYYCSSYTSSSTLFGGGTKLTVL | binds | no binding | 8.05 |  |  |  |  |  |  | 
4 | P601-37 (scFv, V domains shown) VH: EVQLVQSGAEVKKPGASVKVSCKASGYTFNNYGFSWVRQAPGQGLEWMGWISVYNGNTNYAQKLQGRVTMTTDTSTSTAYMELRSLRSDDTAVYYCARDYYSDSSGYWDDAFDIWGQGTMVTVSS VL: AIRMTQSPSSLSASVGDRVTITCQASQDISNYLNWYQQKPGKAPKLLIYAASSLQSGVPSRFSGSGSGTDFTLTISSLQPEDFATYYCQQSYSTPFTFGPGTKVDIK | binds | no binding | 27.9 |  |  |  |  |  |  | 
5 | P601-51 (scFv, V domains shown) VH: not shown VL: QSALTQPASVSGSPGQSITISCTGTSSDFGDYDYVSWYQQHPGKAPKLMIYDVSDRPSGVSNRFSGSKSGNTASLTISGLQAEDEADYFCSSFTTSSTLVFGGGTKLTVLG | no binding | no binding | 0.62 |  |  |  |  |  |  | 
6 | P601-56 (scFv, V domains shown) VH: QLQLQESGPGLVKPSETLSLTCTVSGGSISSSSYYWGWIRQPPGKGLEWIGSIYYSGSTYYNPSLKSRVTISVDTSKNQFSLKLGSVTAADTAVYYCARHDGTDAFDIWGQGTTVTVSS VL: QSVLTQPASVSGSPGQSITISCTGTSSDFGDYDYVSWYQQHPGKAPKLMIYDVSDRPSGVSNRFSGSKSGNTASLTISGLQAEDEADYFCSSLTTSSTLVFGGGTKLTVL | no binding | no binding | 1.85 |  |  |  |  |  |  | 
7 | P601-43 (scFv, V domains shown) VH: QVQLQQSGAEVKKPGASVRVSCKASGYSFGNNGITWVRQAPGQGLEWMGWISTYNGNTNYAQKLQGRVTMTTDTSTSTAYMELRSLRSDDTAVYYCARDYYSDSSGYWDDAFDIWGQGTTVTVSS VL: not shown |  | no binding | 0.23 |  |  |  |  |  |  | 
8 | P601-57 (scFv, V domains shown) VH: EVQLVQSGAEVKKPGSSVKISCKASGGAFTNFGISWVRQAPGQGLEWMGWISTYNSETNYAQKLQGRVTMTTDTSTSTAYMELRSLRSDDTAVYYCARDYYSDSSGYWDDAFDIWGQGTLVTVSS VL: not shown |  | no binding | 4.08 |  |  |  |  |  |  | 
9 | Antibody 601-14 (antibody, V domains shown) VH: QVQLVQSGAEVKKPGESLKISCKDSGYSFTNYWLGWVRQMPGKGLEWMGIIYPGDSDTRYSPSFRGQVTISADKSISTAYLQWSSLKASDTAMYYCARLNLATHTAFDIWGQGTTVTVSS VL: QSVLTQPASVSGSPGQSITISCTGTSSDVGGYNYVSWYQQHPGKAPKLMIYDVSNRPSGVSNRFSGSKSGNTASLTISGLQAEDEADYYCSSYTSSSTLWVFGGGTKLTVLG |  |  |  | 0.00066 | 2.7e+06 | 0.4 | 0.0013 | 3.2e+06 | 0.2 | koff [5]: 0.0015 s⁻¹; kon [5]: 2.4e+06 M⁻¹ s⁻¹; Kd [6]: 0.8 nM; koff [6]: 0.0021 s⁻¹; kon [6]: 2.4e+06 M⁻¹ s⁻¹; Kd [7]: 0.6 nM
10 | Antibody 601-65 (antibody, V domains shown) VH: QVQLQQSGPGLVKPSQTLSLTCAISGDSVSSNSATWNWIRQSPSRGLEWLGRTYYRSKWYNDYAVSVKSRIIINPDTSKNQFSLQLNSVTPEDTAVYYCARGVRAFDIWGQGTTVTVSS VL: QSVLTQPPSVSGTPGQRVTIFCSGGSNNIGRSSVYWYRQAAGTAPKLLIYKTDQRPSGVPDRFAASKSGASASLAISGLRSEDEADYHCATWDDSLSAVVFGGGTKLTVL |  |  |  | 0.0072 | 1.1e+06 | 6.6 | 0.011 | 1.7e+06 | 6.4 | 
11 | Antibody 601-66 (antibody, V domains shown) VH: QVQLVQSGAEVKEPGASVKVSCKASGYTFRNSGITWVRQAPGQGLEWMGWINPNSGGAMYVDNFQGRATMTRDTSINTAYMELRSLSSDDTAVYYCARGMADLIDVFDIWGQGTLVTVSS VL: TQPALTQPASVSGSPGQSITISCTGTSSDFGDYDYVSWYQQHPGKAPKLMIYDVSDRPSGVSNRFSGSKSGNTASLTISGLQAEDEADYFCSSFTTSSTLVFGGGTKLTVL |  |  |  | 0.0051 | 3.1e+06 | 2.4 | 0.0059 | 2.5e+06 | 1.7 | 
12 | Antibody 601-70 (antibody, V domains shown) VH: EVQLVQSGAELKKPGSSVRVSCKTSGGSFKTHGISWVRQAPGQGLEWMGWINPNSGGALYVDNFQGRATMTRDTSINTAYMELRSLSSDDTAVYYCARGMADLIDVFDIWGQGTMVTVSS VL: TQPALTQPASVSGSPGQSITISCTGTSSDFGDYDYVSWYQQHPGKAPKLMIYDVSDRPSGVSNRFSGSKSGNTASLTISGLQAEDEADYFCSSFTTSSTLVFGGGTKLTVL |  |  |  | 0.018 | 5.1e+06 | 5.4 | 0.019 | 3.6e+06 | 3.5 | 
13 | Antibody 601-87 (antibody, V domains shown) VH: QVQLQESGPGLVKSSETLSLTCTVSGGSMNNYYWSWIRQPAGKGLEWMGRIYSSGSTNYNPALKSRVTMSVDTSKNQFSLNLSSVTAADTAIYYCARASWSGTYWALFDYWGQGTLVTVSS VL: ETTLTQSPAFMSATPGDKVNISCKASQDIDDDLNWYQQKPGEAPILIIQEATTLVPGIPPRFSGSGFGTDFTLTINSMQSEDVAYYFCLQHDNFPPTFGQGTKVEIK |  |  |  | 0.00058 | 760000 | 2.2 | 0.0013 | 600000 | 0.8 | 
14 | Antibody 601-9 (antibody, V domains shown) VH: QLQLQESGPGVVKPSGTLSLTCTVSGGSISRSDGYWGWVRQPPGKGLEWIGSIYDTGTTYYSPSLKSRLIISVDTSKNQFSLTLNSVTAADTAVYYCASMGGLRSSSSDAFHTWGPGTMVTVSS VL: QSVLTQPPSVSVAPGETARITCGGTNIGSESVHWYQQRPGQAPVLVVYDDTDRPSGIPERFSGSNSGNTATLTISRVEAGDGADYYCQVWDSVSDRYVFGTGTKVTVL |  |  |  | 0.021 | 1.4e+06 | 27.6 | 0.017 | 630000 | 15.3 | 
